Assay results reported in patent publication US6248712.

Columns and labels:
[1] = biological target: human single-chain pro-u-PA (human) (UniProt P00749)
[2] = biological target: u-PA bound to u-PAR on the cell surface (human) (UniProt P00749); assay: association rate constant from inhibition kinetics of plasminogen activation by u-PAR-bound u-PA on PMA-stimulated U937 cells
[3] = biological target: u-PA bound to u-PAR on the cell surface (human) (UniProt P00749); assay: association rate constant from inhibition kinetics of plasminogen activation by u-PAR-bound u-PA on U937 cells
[4] = biological target: u-PA bound to u-PAR on the cell surface (human) (UniProt P00749); assay: inhibition kinetics, u-PAR-bound u-PA on PMA-stimulated U937 cells against u-PA in solution
[5] = biological target: u-PA bound to u-PAR on the cell surface (human) (UniProt P00749); assay: inhibition kinetics, u-PAR-bound u-PA on U937 cells against u-PA in solution
[6] = biological target: human urokinase-type plasminogen activator, active two-chain 54 kD form (human) (UniProt P00749)
[7] = biological target: u-PA bound to u-PAR on the cell surface (human) (UniProt P00749)

Chain of plasminogen activator inhibitor type 2 (P05120 whole entry): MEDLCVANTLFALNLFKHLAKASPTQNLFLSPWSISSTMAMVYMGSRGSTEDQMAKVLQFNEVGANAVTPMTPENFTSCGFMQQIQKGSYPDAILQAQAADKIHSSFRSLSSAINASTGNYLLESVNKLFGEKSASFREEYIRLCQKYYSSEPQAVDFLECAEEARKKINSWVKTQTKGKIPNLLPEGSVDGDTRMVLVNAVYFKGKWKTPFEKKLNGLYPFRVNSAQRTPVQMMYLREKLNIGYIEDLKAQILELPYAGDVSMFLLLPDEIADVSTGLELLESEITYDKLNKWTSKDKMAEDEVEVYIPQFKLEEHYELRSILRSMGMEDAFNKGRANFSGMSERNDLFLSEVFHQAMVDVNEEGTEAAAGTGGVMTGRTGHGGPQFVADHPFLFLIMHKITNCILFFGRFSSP
Chain of human plasmin (P00747 97-810 limits assumed): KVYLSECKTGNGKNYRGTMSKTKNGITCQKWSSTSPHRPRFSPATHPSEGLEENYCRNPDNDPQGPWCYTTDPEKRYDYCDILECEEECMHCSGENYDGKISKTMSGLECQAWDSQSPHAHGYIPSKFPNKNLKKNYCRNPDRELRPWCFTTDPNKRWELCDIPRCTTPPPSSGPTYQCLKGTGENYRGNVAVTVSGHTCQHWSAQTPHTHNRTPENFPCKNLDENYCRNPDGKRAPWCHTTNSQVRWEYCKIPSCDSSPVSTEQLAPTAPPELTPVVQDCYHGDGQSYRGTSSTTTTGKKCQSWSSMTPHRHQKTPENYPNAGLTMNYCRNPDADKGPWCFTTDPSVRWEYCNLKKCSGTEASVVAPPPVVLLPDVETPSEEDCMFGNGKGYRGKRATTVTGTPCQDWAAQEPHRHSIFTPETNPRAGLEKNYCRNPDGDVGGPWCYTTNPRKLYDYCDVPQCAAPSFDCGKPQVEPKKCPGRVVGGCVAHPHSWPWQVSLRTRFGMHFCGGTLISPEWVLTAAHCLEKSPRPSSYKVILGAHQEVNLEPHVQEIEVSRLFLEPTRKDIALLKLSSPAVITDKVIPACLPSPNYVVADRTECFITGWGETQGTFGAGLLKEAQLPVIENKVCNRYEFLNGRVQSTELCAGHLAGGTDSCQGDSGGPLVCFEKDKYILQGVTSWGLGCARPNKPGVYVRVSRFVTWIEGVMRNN

| generation of u-PA amidolytic activity from pro-u-PA (ng/ml equivalent two-chain u-PA per min) [1] | kon [2] | kon [3] | rate of inhibition relative to u-PA in solution [4] | rate of inhibition relative to u-PA in solution [5] | Bound plasmin activity (%) at 3 h and 17 h; u-PA activity in medium (%) [6] | association-rate constant relative to u-PA in solution [5] | Bound plasmin activity (%) after preincubation of the cells and washing [7] | Substance |
| --- | --- | --- | --- | --- | --- | --- | --- | --- |
| 0.6 | – | – | – | – | – | – | – | human plasmin (from UniProt P00747) (enzyme) |
| – | 1.7e+06 M⁻¹ s⁻¹ | 4.5e+06 M⁻¹ s⁻¹ | 20% | 60% | – | – | – | plasminogen activator inhibitor type 1 (from UniProt P05121) |
| – | 110000 M⁻¹ s⁻¹ | 330000 M⁻¹ s⁻¹ | – | – | 48% | 60% | 54% | plasminogen activator inhibitor type 2 (from UniProt P05120) |
